For series [1], the system named is T1, Aux1LS20-His6 (p56) (Bacillus subtilis plasmid pLS20cat), ORF:1a040432.
T1 sequence: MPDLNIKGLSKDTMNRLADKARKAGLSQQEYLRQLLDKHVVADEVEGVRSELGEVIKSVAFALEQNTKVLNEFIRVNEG
Kind of series: EMSA. The settings on record: EMSA: 20 mM Tris-HCl pH 8, 1 mM EDTA, 5 mM MgCl2, 0.5 mM DTT, 100 mM KCl, 10% glycerol, 0.05 mg/ml BSA; 20 min 30°C then 10 min on ice; 2% agarose, 0.5x TBE ….

In series [2] the target is T2, Aux2LS20-His6 (p57) (Bacillus subtilis plasmid pLS20cat) (UniProt E9RJ22).
T2 sequence: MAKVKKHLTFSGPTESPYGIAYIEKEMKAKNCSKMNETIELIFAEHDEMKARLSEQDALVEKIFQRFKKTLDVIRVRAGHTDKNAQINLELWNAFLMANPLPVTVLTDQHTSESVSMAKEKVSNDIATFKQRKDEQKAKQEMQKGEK
Kind of series: EMSA. The settings on record: EMSA: 20 mM Tris-HCl pH 8, 1 mM EDTA, 5 mM MgCl2, 0.5 mM DTT, 100 mM KCl, 10% glycerol, 0.05 mg/ml BSA; 20 min 30°C then 10 min on ice; 2% agarose, 0.5x TBE ….

The target in series [3] is Aux1_(LS20) with a C-terminal His(6) tag (Bacillus subtilis (plasmid pLS20cat)). Kind of series: AUC + other: dynamic light scattering; sedimentation velocity of the purified protein alone at 12 uM; diffusion coefficient from DLS combined with the S-value in the Svedberg equation; conditions as in Ramachandran et al., 2017.
Series [4] shares this target. Kind of series: AUC; sedimentation equilibrium of the purified protein alone at 12 uM, best fit to a single species model; conditions as in Ramachandran et al., 2017.
Series [5] has as its target Aux2_(LS20) with a C-terminal His(6) tag (Bacillus subtilis (plasmid pLS20cat)). Kind of series: AUC + other: dynamic light scattering; sedimentation velocity of the purified protein alone at 12 uM; diffusion coefficient from DLS combined with the S-value in the Svedberg equation; conditions as in Ramachandran et al., 2017.
Series [6] shares this target. Kind of series: AUC; sedimentation equilibrium of the purified protein alone at 12 uM, best fit to a single species model; conditions as in Ramachandran et al., 2017.

For the substance “AAATCACCTAAATAATGGTTGAACATAAATGTTTTTTTTATGTGCATTCAGCAATAAATCTGGTACCACGAAAAAACAAACCGCACTGCGGTTTCACCATGCAAATGGTGCCAGTTTCCCCTTATGCTCTTTCCTTTTCCACCCCCTCCTTCCTTCGGAATCGGGGGCCGGCTTTTTGCTGCCGCAAAAAGCCTTGGAAA (double strand) [F27]”, the binding entry in series [1] is “binds”; in series [2] it was “binds more weakly”.
“ACGAGCAAAGAAATGCTAGGTGAACTTGAAAAACGGAATGAATTATTGAAGAAAAGAAAGAGCAATCTCGTCATCGAAGACTAAATTTCTGTATGGAAAACAGTTATTTTTCGTGTGCATAAAATAAAGATTTATGTGCATTTAGTTCTAAATCACCTAAATAATGGTTGAACATAAATGTTTTTTTTATGTGCATTCAGC (double strand) [F21]”: the binding result in series [2] was “binds”.
As to “ATGGTGAAACCGCAGTGCGGTTTGTTTTTTCGTGGTACCAGATTTATTGCTGAATGCACATAAAAAAAACATTTATGTTCAACCATTATTTAGGTGATTTAGAACTAAATGCACATAAATCTTTATTTTATGCACACGAAAAATAACTGTTTTCCATACAGAAATTTAGTCTTCGATGACGAGATTGCTCTTTCTTTTCT (double strand) [F23]”, the binding result in series [1] and in series [2] was “binds” throughout.
By stoichiometry N is commonly meant the number of molecules, sites or subunits per partner or assembly. Regarding “Aux1_(LS20) with a C-terminal His(6) tag (natural protein)”, the stoichiometry N in series [3] and in series [4] was 4 in each case.
As to “Aux2_(LS20) with a C-terminal His(6) tag (natural protein)”, the stoichiometry N in series [5] and in series [6] was 6 in each case.
On to “CAGTTATTTTTCGTGTGCATAAAATAAAGATTTATGTGCATTTAGTTCTAAATCACCTAAATAATGGTTGAACATAAATGTTTTTTTTATGTGCATTCAGCAATAAATCTGGTACCACGAAAAAACAAACCGCACTGCGGTTTCACCATGCAAATGGTGCCAGTTTCCCCTTATGCTCTTTCCTTTTCCACCCCCTCCTTC (double strand) [F25]”, for which the binding result in series [1] and in series [2] was “binds” in each case.
Take “CATCGATTTCTGCACATTACTTTGCAACGATCTGTTCAAATAAGTGTTTCTTTTTCCAAGGCTTTTTGCGGCAGCAAAAAGCCGGCCCCCGATTCCGAAGGAAGGAGGGGGTGGAAAAGGAAAGAGCATAAGGGGAAACTGGCACCATTTGCATGGTGAAACCGCAGTGCGGTTTGTTTTTTCGTGGTACCAGATTTATTG (double strand) [F29]”: the values for the binding result in series [1] and in series [2] were “binds” and “no binding”, respectively.
For “CGAAGACTAAATTTCTGTATGGAAAACAGTTATTTTTCGTGTGCATAAAATAAAGATTTATGTGCATTTAGTTCTAAATCACCTAAATAATGGTTGAACATAAATGTTTTTTTTATGTGCATTCAGCAATAAATCTGGTACCACGAAAAAACAAACCGCACTGCGGTTTCACCATGCAAATGGTGCCAGTTTCCCCTTAT (double strand) [F24]” the same measures were “binds” and “binds”.
With “CGGCATTTGTTAACGCTCCTTTTCATCGATTTCTGCACATTACTTTGCAACGATCTGTTCAAATAAGTGTTTCTTTTTCCAAGGCTTTTTGCGGCAGCAAAAAGCCGGCCCCCGATTCCGAAGGAAGGAGGGGGTGGAAAAGGAAAGAGCATAAGGGGAAACTGGCACCATTTGCATGGTGAAACCGCAGTGCGGTTTGT (double strand) [F30]”, the binding entry in series [2] was “no binding”.
The same measure, in the same setting: in the case of “GCAAATGGTGCCAGTTTCCCCTTATGCTCTTTCCTTTTCCACCCCCTCCTTCCTTCGGAATCGGGGGCCGGCTTTTTGCTGCCGCAAAAAGCCTTGGAAAAAGAAACACTTATTTGAACAGATCGTTGCAAAGTAATGTGCAGAAATCGATGAAAAGGAGCGTTAACAAATGCCGGATCTCAACATCAAAGGTCTTTCAA (double strand) [F31]” it was “no binding”; in that of “GCTCTTTCCTTTTCCACCCCCTCCTTCCTTCGGAATCGGGGGCCGGCTTTTTGCTGCCGCAAAAAGCCTTGGAAAAAGAAACACTTATTTGAACAGATCGTTGCAAAGTAATGTGCAGAAATCGATGAAAAGGAGCGTTAACAAATGCCGGATCTCAACATCAAAGGTCTTTCAAAAGATACAATGAATAGGCTTGCGGA (double strand) [F32]”, “no binding”.
For “TAAAGATTTATGTGCATTTAGTTCTAAATCACCTAAATAATGGTTGAACATAAATGTTTTTTTTATGTGCATTCAGCAATAAATCTGGTACCACGAAAAAACAAACCGCACTGCGGTTTCACCATGCAAATGGTGCCAGTTTCCCCTTATGCTCTTTCCTTTTCCACCCCCTCCTTCCTTCGGAATCGGGGGCCGGCTTT (double strand) [F26]”, the figures for the binding entry in series [1] and in series [2] were “binds” and “binds more weakly”, respectively.
On the same counts, the results for “TAAATGTTTTTTTTATGTGCATTCAGCAATAAATCTGGTACCACGAAAAAACAAACCGCACTGCGGTTTCACCATGCAAATGGTGCCAGTTTCCCCTTATGCTCTTTCCTTTTCCACCCCCTCCTTCCTTCGGAATCGGGGGCCGGCTTTTTGCTGCCGCAAAAAGCCTTGGAAAAAGAAACACTTATTTGAACAGATCG (double strand) [F28]” are “binds” and “binds more weakly”.
Take “TGAGAAAGTCCTGCCTTCCTCGCTTTATCCGCAAGCCTATTCATTGTATCTTTTGAAAGACCTTTGATGTTGAGATCCGGCATTTGTTAACGCTCCTTTTCATCGATTTCTGCACATTACTTTGCAACGATCTGTTCAAATAAGTGTTTCTTTTTCCAAGGCTTTTTGCGGCAGCAAAAAGCCGGCCCCCGATTCCGAAGG (double strand) [F33]”: the binding result in series [2] is on record as “no binding”.
Consider “TTTTTCGTGGTACCAGATTTATTGCTGAATGCACATAAAAAAAACATTTATGTTCAACCATTATTTAGGTGATTTAGAACTAAATGCACATAAATCTTTATTTTATGCACACGAAAAATAACTGTTTTCCATACAGAAATTTAGTCTTCGATGACGAGATTGCTCTTTCTTTTCTTCAATAATTCATTCCGTTTTTCAAG (double strand) [F22]”, for which the binding result in series [1] and in series [2] was “binds” each time.

The values above are taken from article PMC5675868.
